In US20170281807A1 (UNIVERSITY OF TENNESSEE RESEARCH FOUNDATION, published 2017):
Ends that are not written are not given here.

B1: murine 11-1F4 monoclonal antibody (antibody, V domains shown)
VH: QVQLKESGPGLVAPSQSLSITCTVSGFSLSSYGVSWVRQPPGKGLEWLGVIWGDGSTNYHPNLMSRLSISKDISKSQVLFKLNSLQTDDTATYYCVTLDYWGQGTSVTVSS
VL: DVVMTQTPLSLPVSLGDQASISCRSSQSLVHRNGNTYLHWYLQKPGQSPKLLIYKVSNRFSGVPDRFSGSGSGTDFTLKISRVEAEDLGLYFCFQTTYVPNTFGGGTKLEIK
B2: peptide p66 (11-1F4 peptope) (peptide)
peptide: KAQKAQAKQAKQAQKAQKAQAKQAKQAQKAQKAQAKQAKQSVTVVTKHYAAFPENLLI
modifications: also: 125I-labeled in pull-down and in vivo work
notes: also called peptope p66

Assays:
[1] = target: B2; assay: EuLISA, peptide coated, 11-1F4 titrated from 100 nM
[2] = target: T1, synthetic Aβ(1-40) amyloid fibrils (UniProt P05067 672-711); assay: EuLISA, fibrils coated, p66 added and washed, detected by 11-1F4
T1 construct: domain: Aβ(1-40); Fibrillar aggregate; 1-40 counts on the Aβ peptide, not on the precursor

BSA = BSA (UniProt P02769 25-607); assay: EuLISA, BSA-blocked wells without fibrils, p66 then 11-1F4
Sequence of BSA (P02769 25-607 limits assumed): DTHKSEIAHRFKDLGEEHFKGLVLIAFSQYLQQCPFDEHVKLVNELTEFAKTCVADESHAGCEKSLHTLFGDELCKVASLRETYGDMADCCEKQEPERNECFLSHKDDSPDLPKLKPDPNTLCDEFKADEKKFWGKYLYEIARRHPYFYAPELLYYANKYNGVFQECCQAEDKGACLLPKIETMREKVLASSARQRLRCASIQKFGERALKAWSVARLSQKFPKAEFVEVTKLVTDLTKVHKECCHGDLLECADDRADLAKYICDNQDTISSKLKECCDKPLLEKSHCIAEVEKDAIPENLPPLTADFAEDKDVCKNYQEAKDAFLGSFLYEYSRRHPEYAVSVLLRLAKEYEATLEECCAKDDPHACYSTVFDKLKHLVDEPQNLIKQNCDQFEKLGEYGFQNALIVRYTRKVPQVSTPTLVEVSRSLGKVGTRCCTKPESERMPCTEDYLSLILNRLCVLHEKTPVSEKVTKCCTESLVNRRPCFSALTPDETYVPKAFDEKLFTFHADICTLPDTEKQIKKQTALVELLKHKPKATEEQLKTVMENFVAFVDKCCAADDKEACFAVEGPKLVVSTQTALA

T1 sequence (P05067 672-711 limits assumed): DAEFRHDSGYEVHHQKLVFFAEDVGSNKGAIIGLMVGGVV

EC50 [1] [nM]	binding result [2]	Binder	binding result (BSA)
~0.5		B1	
	binds	B2	no binding (tested: 100 µl of a 0.83 mM stock solution)
